From PMC8585947, “Structure of Escherichia coli cytochrome bd-II type oxidase with bound aurachin D” (Nature Communications, 2021)

Experiments:
[1] = biological target: the molecule itself; assay: cryo-EM structure; bd-II in amphipol A8-35, 5.6 mg/mL, incubated with aurachin D; 20 mM MOPS, 20 mM NaCl, pH 7.0; C2 symmetry imposed; 3.0 Å
[2] = biological target: T1, AppC, subunit of Escherichia coli cytochrome bd-II oxidase (E. coli, UniProt P26459 1-514); assay: as above; details: both partners purified
T1 construct: AppC, cytochrome bd-II oxidase subunit, E. coli; predicted molecular mass 58.1 kDa; gene amplified from genomic DNA of strain BW25113; also called AppChis
T1 sequence: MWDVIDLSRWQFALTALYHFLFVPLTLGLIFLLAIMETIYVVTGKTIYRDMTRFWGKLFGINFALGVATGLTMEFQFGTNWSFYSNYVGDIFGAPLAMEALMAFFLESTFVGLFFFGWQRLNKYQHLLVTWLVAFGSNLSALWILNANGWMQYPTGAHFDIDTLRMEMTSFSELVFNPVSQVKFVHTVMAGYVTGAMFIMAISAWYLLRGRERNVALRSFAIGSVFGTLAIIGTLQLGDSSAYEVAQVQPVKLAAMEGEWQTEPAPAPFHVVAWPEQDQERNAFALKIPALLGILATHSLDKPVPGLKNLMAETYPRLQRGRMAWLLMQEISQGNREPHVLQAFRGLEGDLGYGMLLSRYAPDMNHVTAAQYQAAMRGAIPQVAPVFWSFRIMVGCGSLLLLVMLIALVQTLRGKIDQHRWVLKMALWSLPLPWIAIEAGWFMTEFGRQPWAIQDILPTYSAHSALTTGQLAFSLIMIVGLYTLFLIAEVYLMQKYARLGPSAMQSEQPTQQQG

| Binder | binding result [1] | binding result [2] |
| --- | --- | --- |
| MWYLLWFVGILLMCSLSTLVLVWLDPRLKS (natural protein, E. coli, AppX, cytochrome bd-II oxidase subunit, E. coli; length of 30 amino acid residues; predicted molecular mass 3.6 kDa; gene amplified from genomic DNA of strain BW25113) [AppX, single helix subunit of Escherichia coli cytochrome bd-II oxidase] | binds | binds |
| AppB, subunit of Escherichia coli cytochrome bd-II oxidase (natural protein, AppB, cytochrome bd-II oxidase subunit, E. coli; predicted molecular mass 42.4 kDa; gene amplified from genomic DNA of strain BW25113) not shown |  | binds |
